Source: US20220184222A1, “BICYCLE TOXIN CONJUGATES AND USES THEREOF” (BicycleTx Limited, priority 2019, published 2022)
Entries after “also recorded” stand apart in the source; their conditions may differ. Starred links: 1 amine or outer side, 2 acyl side, 3 side chain; linkers in the order of their positions; H or OH if unused. Non-standard residues stand in square brackets, D forms with d. Residues, ends and D or L forms follow the SMILES beside them. *: point of attachment. Dolaproine = CO[C@@H]([C@@H]1CCCN1)[C@@H](C)C(=O)O; Dil = CC[C@H](C)[C@H](NC)[C@@H](CC(=O)O)OC; PABC = O=C(OCc1ccc(N[*:1])cc1)[*:2]; X1 = O=C(CCCC(=O)*)ON1C(=O)CCC1=O; X2 = C[C@@H](N*)[C@@H](O)c1ccccc1; Cit = NC(=O)NCCC[C@H](N)C(=O)O; NMeV = CN[C@H](C(=O)O)C(C)C

Experiment: In vivo PK in PC-3 CDX model: LC-MS quantitation of MMAE and BT5528 in plasma and tumour (Example 4)
Parameters: species or system Mus Musculus
Details: single i.v. dose of BT5528
Description: The objective of the research is to evaluate the in vivo PK/PD of test agents in treatment of PC-3 CDX model in Balb/c nude mice.
Each mouse was inoculated subcutaneously at the right flank with PC-3 tumor cells (10×10^6) in 0.2 mL of PBS for tumor development. The animals were randomized and dosed when the average tumor volume reached approximately 440 mm^3 for the PK/PD study. The test article administration and time points in each group were shown in the experimental design table.
Mice were randomly grouped based on tumor volume and dosed as experimental design. Plasma, serum, muscle and tumors were collected at 1 h, 2 h, 8 h, 24 h, 48 h, 72 h and 96 h post dosing.
Two protease inhibitor products were used: Complete™ mini EDTA-free protease inhibitor cocktail tablets and AEBSF (200 mM, prepared by dissolving 100 mg in water (2086 μL)). The AEBSF solution was stored at −20° C. when not in use. For the dilution of plasma, a solution (inhibitor solution A) was prepared by dissolving 12 Complete™ tablets in 50/50 methanol/water (12 mL) and adding 200 mM AEBSF (12 μL). […]
Samples, standards, QCs and blanks were transferred (10 μL diluted plasma, 30 μL tissue homogenate) to a 96-well plate on ice. […] The plate was mixed briefly and sealed ready for injection onto the LC-MS/MS. […]

CC[C@H](C)[C@@H]([C@@H](CC(=O)N1CCC[C@H]1[C@H](OC)[C@@H](C)C(=O)N[C@H](C)[C@@H](O)c1ccccc1)OC)N(C)C(=O)[C@@H](NC(=O)[C@H](C(C)C)N(C)C(=O)OCc1ccc(NC(=O)[C@H](CCCNC(N)=O)NC(=O)[C@@H](NC(=O)CCCC(=O)ON2C(=O)CCC2=O)C(C)C)cc1)C(C)C [BT5528] (X1-V[Cit][PABC][NMeV]V[Dil][Dolaproine]-X2)
MMAE concentrations in tumour: accumulation of MMAE in tumor tissue; also recorded: high MMAE concentrations in tumour, which is stable from 2h to >48h
exposure of BT5528 and MMAE in plasma: short systemic exposure; also recorded: transient exposure of both BT5528 and MMAE in plasma
